Laboratory results as given in patent US7935680B2, “Methods for modulating the axonal growth of central nervous system neurons” (Children's Medical Center Corporation, priority 1997, dated 2011).

How the values were obtained:
[1] = tested on: rat retinal ganglion cells; assay: Cell survival of purified rat retinal ganglion cells; assay type: cell-based; details: CNTF, rat RGCs
Experimental: Goldfish (Comet Variety, Mt. Parnell Fisheries, Mt. Parnell Pa.), 6-10 cm in length, were dark-adapted and their retinas dissected. Retinas were incubated with papain (20 μg/ml), activated with cysteine (2.8 mM) for 30 minutes at room temperature, then dissociated by gentle trituration. Repeated cycles of trituration and sedimentation yielded cultures nearly homogeneous in ganglion cells, which are readily identified by their oval shape, phase-bright appearance, size (diameter 15 μm), and extension of only 1 or 2 neurites of uniform caliber; these criteria have been verified by retrograde labeling (see Schwartz & Agranoff, Brain Res. 206: 331-343, 1981 and Schwalb et al., J. Neuroscience 15: 5514-5625, 1995, the contents of which are incorporated herein by reference). […]
In a typical experiment, samples were plated in quadruplicate in randomized positions of a 24-well plate and the code was concealed to ensure that growth was evaluated in a blinded fashion. […] Growth and survival were assessed after 6 days for all ganglion cells in 25 consecutive fields of each well using phase contrast microscopy at 400× magnification (c. 150 ganglion cells counted per well). […] After the completion of counting, the code was broken, the data tabulated, and means and standard errors were calculated for the 4 replicate wells of each sample using Cricket Graph (CA Associates, Islandia, N.Y.). […]

[2] = tested on: rat retinal ganglion cells; assay: Axonal outgrowth from purified rat retinal ganglion cells; assay type: cell-based; details: CNTF, rat RGCs
Experimental: Goldfish (Comet Variety, Mt. Parnell Fisheries, Mt. Parnell Pa.), 6-10 cm in length, were dark-adapted and their retinas dissected. Retinas were incubated with papain (20 μg/ml), activated with cysteine (2.8 mM) for 30 minutes at room temperature, then dissociated by gentle trituration. Repeated cycles of trituration and sedimentation yielded cultures nearly homogeneous in ganglion cells, which are readily identified by their oval shape, phase-bright appearance, size (diameter 15 μm), and extension of only 1 or 2 neurites of uniform caliber; these criteria have been verified by retrograde labeling (see Schwartz & Agranoff, Brain Res. 206: 331-343, 1981 and Schwalb et al., J. Neuroscience 15: 5514-5625, 1995, the contents of which are incorporated herein by reference). Low density cultures were achieved by plating c. 5×10^3 cells/well into poly L-lysine coated, 24-well culture dishes (Costar, Cambridge, Mass.). Cells were maintained at 21° C. in serum free, defined media containing insulin, selenium, transferrin, bovine serum albumin, catalase, superoxide dismutase, hormones, and vitamins in Eagle's L-15 media as described in Schwalb et al., 1995, the contents of which are incorporated herein by reference). Dissociated cultures of purified rat retinal ganglion cells were prepared by immunopanning as described in Barres et al., Neuron, 1: 791-803, 1988, the contents of which are incorporated herein by reference). In brief, retinas from postnatal day 8 Sparague-Dawley rats were dissociated using papain activated with cysteine. Macrophages were removed by incubation with an anti-rat macrophage antibody (Accurate) followed by immunopanning with an anti-rabbit 1gG antibody. Ganglion cells were isolated by immunopanning with an anti-Thy-1 antibody, then dislodged with trypsin for use in low-density cultures. Rat retinal ganglion cells were maintained at 37° C. in a CO2 incubator using the same medium described above except for the presence of 30 mM bicarbonate.
In a typical experiment, samples were plated in quadruplicate in randomized positions of a 24-well plate and the code was concealed to ensure that growth was evaluated in a blinded fashion. Each experiment contained 4 wells of a negative control (media plus supplements only) and 4 wells of a positive control (a standardized AF-1 sample of known activity). Growth and survival were assessed after 6 days for all ganglion cells in 25 consecutive fields of each well using phase contrast microscopy at 400× magnification (c. 150 ganglion cells counted per well). Extension of a process 5 cell diameters in length was the criterion for growth, since it clearly distinguishes stimulated cells from negative controls (see Schwalb et al., 1995). After the completion of counting, the code was broken, the data tabulated, and means and standard errors were calculated for the 4 replicate wells of each sample using Cricket Graph (CA Associates, Islandia, N.Y.). Data were normalized by subtracting the growth in the negative controls (usually 4-5%) and dividing by the net growth in the positive controls. In the most favorable experiments, more than 50% of retinal ganglion cells (RGCs) exposed to AF-1 extended axons 5 cell diameters in length after 6 days. Group comparisons were based upon pairwise, 2-tailed Student's t-tests. Several independent experiments were performed for most samples, as noted in the figure legends. In some cases, cell viability was assessed with the dye 5,6-carboxyfluorescein diacetate. […]

B1: CNTF: Ciliary neurotrophic factor (protein, UniProt P26441 1-200, looked up)
Ciliary neurotrophic factor: MAFTEHSPLTPHRRDLCSRSIWLARKIRSDLTALTESYVKHQGLNKNINLDSADGMPVASTDQWSELTEAERLQENLQAYRTFHVLLARLLEDQQVHFTPTEGDFHQAIHTLLLQVAAFAYQIEELMILLEYKIPRNEADGMPINVGDGGLFEKKLWGLKVLQELSQWTVRSIHDLRFISSHQTGIPARGSHYIANNKKM
cell survival [1]: enhanced cell survival | outgrowth compared with inosine [2]: much larger increase in outgrowth
